Data set [1] is described as follows: Purification of LATM2 with 2-iminobiotin-agarose. The data set is classed as binding. The conditions noted are these: for Recovery rate (%): Iminobiotin-agarose, binding at pH 12, elution with 50 mM NH4OAC (pH 4). How it is done:
LATM2 was purified through a column charged with 2-iminobiotin-agarose (manufactured by Sigma-Aldrich Corp.) in accordance with the method by Hofmann, et al., (1980). IPTG was added to 25 mL of a culture solution of E. coli transformed with each LATM2 in a final concentration of 1 mM to induce expression. The E. coli cells were collected by centrifugation, suspended in 1.5 mL of 50 mM CAPS (pH 12) containing 50 mM NaCl, and then sonicated. To the supernatant of the disrupted cells, 500 μL of 2-iminobiotin-agarose was added, which was then packed in a column. The column was sufficiently washed with 50 mM CAPS (pH 12) containing 500 mM NaCl, and elution was then performed with 50 mM NH4OAC (pH 4).
(§1) The recovery rate in Table 2 was calculated by dividing the amount of LATM2 protein after purification by the amount of LATM2 protein before purification and was expressed by percent by multiplying the quotient by 100. The degree of purification was the ratio of the amount of LATM2 protein to the total amount of proteins in the purified fraction and was expressed by percent by multiplying the ratio by 100. The recovery rates and the degrees of purification in biotin-agarose were the results after binding at pH 7 and elution with an excess amount of biotin.

The nature of data set [2]: Purification of LATM2 with biotin-agarose. The data set is classed as binding. The protocol: Purification with biotin-agarose (manufactured by Sigma-Aldrich Corp.) was performed by the following procedure. After induced expression of 25 mL of a culture solution of E. coli for each LATM2, the E. coli cells were suspended in 1.5 mL of a 100 mM potassium phosphate buffer (pH 7.0), and then sonicated. To the supernatant of the disrupted cells. 400 μL of biotin-agarose was added, which was followed by upside-down mixing for 1 hr. […]
In TM2 S36A-T78A-D116A, the E. coli cells were suspended in 1.5 mL of 50 mM CAPS (pH 12) containing 50 mM NaCl, and then sonicated. To the disrupted cells, 400 μL of biotin-agarose was added, which was followed by upside-down mixing for 1 hr. The column was sufficiently washed with 50 mM CAPS (pH 12) containing 500 mM NaCl, and elution was then performed with 1 mL of PBS (pH 7.4) containing 10 mM biotin.
In TM2 S36A-D116A, the E. coli cells were suspended in 1.5 mL of a 100 mM potassium phosphate buffer (pH 4.0), and then sonicated. To the pupernatant of the disrupted cells, 400 μL of biotin-agarose was added. Washing was performed with a 100 mM potassium phosphate buffer (pH 4) containing 500 mM NaCl, and elution was performed with 1 mL of PBS (pH 7) containing 10 mM biotin. Biotin binding to LATM2 that has been eluted with an excess amount of biotin was removed by dialysis with a 20 mM potassium phosphate buffer overnight.
as §1

Data set [3] can be described thus: Heat resistance of LATM2 by SDS-PAGE. It counts as physicochemical. Conditions: absence of biotin, 20 min in SDS sample buffer. The protocol: The heat resistance of LATM2s was investigated by SDS-PAGE. Each protein was heat treated at predetermined temperatures for 20 min in an SDS sample buffer in the presence or absence of biotin and was then subjected to SDS-PAGE, followed by CBB staining. The heating temperatures in a biotin-free experimental system were 80° C., 82° C., 84° C., 86° C., 88° C., 90° C., 92° C., and 94° C., and heating temperatures in a biotin-containing experimental system were 86° C., 88° C., 90° C., 92° C., 96° C., 98° C., and 100° C.

In the next data set the test system is Proteinase K. As to the kind of experiment: Protease resistance of LATM2 (SDS-PAGE). Conditions: 5 μM Proteinase K, 30° C., 15 min, presence or absence of biotin. How it is done: Throughout the specification, “having protease resistance” refers to that a protein is not enzymatically decomposed or not substantially decomposed by protease treatment. The protease treatment is performed by, for example, proteinase K treatment at 30° C. for 15 min. The term “not enzymatically decomposed” refers to that bands of a tetramer, dimer, and/or monomer of the protein can be clearly detected by SDS-PAGE after enzyme treatment, as in wild-type TM2. That is, a protein not having protease resistance is decomposed into small molecules by protease treatment, and bands of the tetramer, dimer, and monomer are not detected by SDS-PAGE after the protease treatment. […] Accordingly, bands of the tetramer and/or the dimer or monomer generated by dissociation of the tetramer are detected by SDS-PAGE. […] of each of the LATM2s (TM2 S36A, TM2 […], TM2 […], TM2 […], TM2 […], TM2 S36A-[…], TM2 […], and […]) purified by biotin-agarose was subjected to a reaction in 50 mM Tris-HCl (pH 8.0) containing 5 μM Proteinase K and 5 mM CaCl2 at 30° C. for 15 min. […] Then, an SDS buffer was added to each reaction solution, followed by heat treatment at 95° C. for 10 min to terminate the reaction. The resulting sample was subjected to SDS-PAGE, followed by CBB staining.

Data set [4] is described as follows: Subunit association by FPLC on Sephacryl S-100HR. The data set is classed as physicochemical. The conditions noted are these: for Structure (identified by FPLC): Sephacryl S-100HR, 50 mM potassium phosphate, 500 mM NaCl; for Sephacryl (mL), elution peak position: tetramer 44 to 47 mL, dimer 51 to 54 mL, monomer 63 to 66 mL. How it is done: In order to analyze the subunit association conditions of LATM2, the molecular weight of each LATM2s was measured by FPLC. Sephacryl S-100HR (manufactured by GE Healthcare) was used as a column, a Gel Filtration Calibration Kit LMW (manufactured by GE Healthcare) was used as molecular weight markers, and 50 mM potassium phosphate containing 500 mM NaCl was used as a buffer.
The positions of the peaks of eluted tetramer were defined to be 44 to 47 mL after injection of WT-TM2 as a control. The peak of an eluted monomer appeared at around 63 to 66 mL and the peak of an eluted dimer appeared at around 51 to 54 mL, from result of loading the molecular weight markers.

A short description of data set [5]: pH-dependence of binding to biotin-agarose. How it is done:
E. coli cells were collected from 25 mL of an E. coli culture solution in which expression TM2 S36A-D116A was induced with 1 mM IPTG, were suspended in 1.5 mL of a 100 mM potassium phosphate buffer ([…]) or 1.5 mL of a 50 mM CAPS (pH 12.0), and then were sonicated. The disrupted cells were centrifugated, and 400 μL of biotin-agarose was added to the supernatant. […] Furthermore, the TM2 S36A-D116A protein was dissociated from the carrier by increasing the pH of the reaction solution to 7.0 or 12.0 and was recovered at an efficiency of 95%.
TM2 S36A-T78A-D116A was also investigated for its pH-dependence. The protein was suspended in a buffer of pH 4.0 or pH 12.0 and was sonicated. […] By utilizing this property, high purity TM2 S36A-T78A-D116A was obtained by binding the protein to biotin-agarose at pH 4.0 and eluting it at pH 7.0 (FIG. 3B).

Data set [6] in a line: Biotin-binding ability of TM2 D40N.
[7] abbreviates: Biotin-agarose, binding at pH 7, recovery with 10 mM biotin.

Numbering of substitutions follows the chain as printed. Names and notes keep the numbering of the source.

B1: TM2 T78A: TM2 in which the 78th threonine was replaced with alanine; SEQ ID NO: 10 (protein)
chain: MSDVQSSLTGTWYNELNSKMELTANKDGTLTGKYLSKVGDVYVPYPLSGRYNLQPPAGQGVALGWAVSWENSKIHSAATWSGQFFSESSPVILTQWLLSSSTARGDVWESTLVGNDSFTKTAPTEQQIAHAQLHCRAPRLK
modifications: Synthetic TM2 T78A
For the molecule B1, the “Recovery rate (%)” value in data set [1] was determined as 10%. Also, in data set [1] (purification with 2-iminobiotin-agarose), the “recovery rates compared with WT” value is recorded as “inferior to WT”. Further, the “Recover rate (%)” value in data set [2] (setting [7]) is “about 95%”; in data set [2] (Biotin-agarose, binding at pH 7, recovery with 10 mM biotin, listed as T78A) it was 95%. For the same molecule, the “Tr value (temperature at which ratio monomer:tetramer becomes 1:1)” value in data set [3] amounted to 88 °C. Also, the “decomposition by Proteinase K” value in the data set with Proteinase K is “hardly decomposed”. Also, the “Structure (identified by FPLC)” value is reported as “tetramer” in data set [4] and “Tetramer” in data set [4] (listed as T78A). Moreover, the “Sephacryl (mL), elution peak position” value in data set [4] amounted to 45.71 mL.

B2: WT-TM2: wild-type tamavidin 2, protein comprising the amino acid sequence SEQ ID NO: 2, from Pleurotus cornucopiae (protein, listed as Pleurotus cornucopiae)
chain: B1 chain with A78T
Take B2: the “Recovery rate (%)” value in data set [1] was 95%. Further, in data set [2], the binding to biotin-agarose entry is on record as “efficiently adsorbs to biotin-agarose” and the “elution from biotin-agarose with an excess amount of biotin” value is “not eluted”. The “Recover rate (%)” value in data set [2] (setting [7]) worked out at 0%. Besides, the “Note (Biotin-agarose)” value in data set [2] (binding at pH 7, recovery with 10 mM biotin, FT = flow-through) is “not eluted”. Besides, in data set [3], the “Tr value (temperature at which ratio monomer:tetramer becomes 1:1)” value is 78 °C. The “decomposition by Proteinase K” value in the data set with Proteinase K was “hardly decomposed”. In addition, in data set [4], the “Structure (identified by FPLC)” value is reported as “Tetramer” and the “Sephacryl (mL), elution peak position” value is 46.23 mL.

B3: TM2 S36A-T78A-D116A: TM2 with 36th serine, 78th threonine and 116th aspartic acid replaced with alanine; SEQ ID NO: 8 (protein)
chain: B1 chain with S36A, D116A
modifications: Synthetic TM2 S36A-T78A-D116A
For the molecule B3, in data set [1], the “binding to 2-iminobiotin-agarose” value is recorded as “did not bind” and the “Recovery rate (%)” value turned out to be 0%. For the same molecule, the “recovery rate by binding at pH 4 or 12, elution at pH 7 (without biotin)” value in data set [2] (Biotin-agarose) is recorded as “recovery rate: 95%”. For the same molecule, the “Recover rate (%)” value in data set [2] (setting [7]) is recorded as 0%. Besides, the “decomposition by Proteinase K” value with Proteinase K is listed as “hardly decomposed”. For the same molecule, in data set [4], the “Structure (identified by FPLC)” value is “dimer” and the “Sephacryl (mL), elution peak position” value worked out at 51.06 mL. The “Structure (identified by FPLC)” value in data set [4] (listed as S36AT78AD116A) is reported as “Dimer”. In addition, in data set [5] (pH 4.0 or pH 12.0), the binding to biotin-agarose result is reported as “confirm its binding to biotin-agarose”. Moreover, the binding to biotin-agarose result in data set [5] (pH 7.0) is “did not bind to biotin-agarose at all”.

B4: TM2 D40N: TM2 having modification of the 40th aspartic acid to asparagine (protein)
chain: B1 chain with D40N, A78T
On to B4, for which the “biotin-binding ability relative to TM2” value in data set [6] is “increases”.

B5: TM2 S36A-D116A: TM2 with 36th serine and 116th aspartic acid replaced with alanine; SEQ ID NO: 20 (protein)
chain: B1 chain with S36A, A78T, D116A
modifications: Synthetic TM2 S36A-D116A
Turning to B5, in data set [1], the “binding to 2-iminobiotin-agarose” value is “did not bind” and the “Recovery rate (%)” value is 0%. In addition, the “recovery rate by binding at pH 4, elution at pH 7 (without biotin)” value in data set [2] (Biotin-agarose) is reported as 95%. Further, the “Recover rate (%)” value in data set [2] (setting [7]) amounted to 0%. In addition, the “recovery rate by binding at pH 4, elution at pH 7 (without biotin)” value in data set [2] (Biotin-agarose, listed as S36AD116A) is “recovery rate: 95%”. The “decomposition by Proteinase K” value with Proteinase K is “approximate a half thereof was decomposed”. In data set [4], the “Structure (identified by FPLC)” value is reported as “Tetramer” and the “Sephacryl (mL), elution peak position” value turned out to be 46.31 mL. The binding to biotin-agarose entry in data set [5] (extract at pH 4.0, pH 5.0, or pH 6.0) is reported as “efficiently bound to biotin-agarose”. Also, in data set [5] (extract at pH 7.0 or pH 12.0), the binding to biotin-agarose entry is recorded as “did not bind to biotin-agarose at all”. Besides, the “recovery efficiency on dissociation from the carrier” value in data set [5] (increasing the pH to 7.0 or 12.0) came to 95%.

Values taken from patent publication US9611303B2, “Modified biotin-binding protein” (Japan Tobacco Inc., priority 2009, dated 2017).
